One assay concerns the target T1, mouse IL-17F (mouse, UniProt Q7TNI7 29-161).
T1 sequence (looked up): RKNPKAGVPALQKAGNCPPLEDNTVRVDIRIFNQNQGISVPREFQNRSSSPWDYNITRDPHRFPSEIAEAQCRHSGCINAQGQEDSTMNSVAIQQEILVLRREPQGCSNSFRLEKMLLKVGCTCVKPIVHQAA
Description: binding ELISA. In general terms: In an ELISA, binding on a coated surface is turned into a signal by an enzyme label.

The target of another assay is T2, rat IL-17F (rat, UniProt Q5BJ95 29-161).
T2 sequence (looked up): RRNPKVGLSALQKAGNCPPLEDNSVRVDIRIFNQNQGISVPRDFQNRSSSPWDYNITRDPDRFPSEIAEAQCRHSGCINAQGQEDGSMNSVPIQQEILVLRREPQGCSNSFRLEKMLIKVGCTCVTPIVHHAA
Description: binding ELISA.

Assay [1] has as its target T3, human IL-17A (human, UniProt Q16552 24-155, biotinylated with Sulfo-NHS-LC-Biotin in the AlphaScreen assays only).
T3 construct: also called hIL-17A; recombinant human IL-17A
Description: SPR Biacore, hIL-17A on chip; purified protein.

For assay [2], the target named is T3, human IL-17A. Description: AlphaScreen competition, hIL-17A - IL-17RC-Fc.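 Note: Read-out after 1 h at room temperature with the receptor Fc-fusion, Acceptor beads and streptavidin-coated Donor beads present.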 On the technique in general: In Alpha technology, singlet oxygen from a donor bead excites a nearby acceptor bead.
Description: (§1) To this mixture, the IL-17RA or IL-17RC Fc-fusions, Acceptor beads and the streptavidin Donor beads were added and further incubated for 1 hour at RT.
Assay [3] has as its target T4, human IL-17A/F heterodimer (human, UniProt Q16552 24-155; Q96PD4 31-163, limits assumed, biotinylated with Sulfo-NHS-LC-Biotin in the AlphaScreen assays only).
T4 construct: also called hIL-17A/F
Description: SPR Biacore, hIL-17A/F on chip; purified protein. A general note: Surface plasmon resonance follows binding to a sensor surface in real time, without labels.

In assay [4] the target is T3, human IL-17A. In words: cell-based or functional assay.
In assay [5] the target is T3, human IL-17A. In words: AlphaScreen competition, hIL-17A - IL-17RA-Fc.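 Note: receptor Fc-fusion plus Acceptor and streptavidin Donor beads incubated with the mixture for 1 h at room temperature before reading.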
Description: as §1
In assay [6] the target is T4, human IL-17A/F heterodimer. Description: AlphaScreen competition, hIL-17A/F - IL-17RC-Fc.
Description: as §1
Assay [7] has as its target T4, human IL-17A/F heterodimer. Description: cell-based or functional assay.
Assay [8] has as its target T4, human IL-17A/F heterodimer. In words: AlphaScreen competition, hIL-17A/F - IL-17RA-Fc.
Description: as §1
A further assay has as its target T5, human IL-17F (human, UniProt Q96PD4 31-163, biotinylated with Sulfo-NHS-LC-Biotin in the AlphaScreen assays only).
T5 construct: also called hIL-17F; recombinant human IL-17F
T5 sequence: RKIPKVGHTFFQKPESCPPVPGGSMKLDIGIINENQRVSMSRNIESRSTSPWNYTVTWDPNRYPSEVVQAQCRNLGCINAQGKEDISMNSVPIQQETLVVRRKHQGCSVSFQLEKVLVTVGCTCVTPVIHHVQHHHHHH
Description: SPR Biacore, hIL-17F on chip; periplasmic extract (*); NB = no binding.

In another assay the target is T6, human IL-17E (human, UniProt Q9H293 33-177).
T6 construct: expressed in E. coli; also called hIL-17E
T6 sequence (looked up): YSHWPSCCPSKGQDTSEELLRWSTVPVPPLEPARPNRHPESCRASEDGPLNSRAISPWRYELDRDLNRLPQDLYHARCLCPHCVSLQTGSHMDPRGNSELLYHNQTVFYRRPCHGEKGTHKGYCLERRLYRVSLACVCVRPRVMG
In words: SPR, cytokine on chip.

A further assay has as its target T7, human IL-17C (human, UniProt Q9P0M4 19-197).
T7 construct: expressed in E. coli; also called hIL-17C
T7 sequence (looked up): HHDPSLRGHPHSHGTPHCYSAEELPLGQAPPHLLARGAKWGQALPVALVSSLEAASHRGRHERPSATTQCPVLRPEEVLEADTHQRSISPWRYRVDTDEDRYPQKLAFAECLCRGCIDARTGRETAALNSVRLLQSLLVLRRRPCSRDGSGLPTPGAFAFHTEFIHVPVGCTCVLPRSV
In words: SPR, cytokine on chip.

The target of another assay is T8, human IL-17D (human, UniProt Q8TAD2 18-202, limits assumed).
T8 construct: expressed in E. coli; also called hIL-17D
T8 sequence (looked up): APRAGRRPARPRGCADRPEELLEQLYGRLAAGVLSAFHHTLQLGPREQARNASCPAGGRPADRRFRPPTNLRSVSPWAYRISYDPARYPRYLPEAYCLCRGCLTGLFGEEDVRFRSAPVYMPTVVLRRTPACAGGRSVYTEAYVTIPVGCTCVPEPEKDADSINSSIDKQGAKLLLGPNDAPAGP
Description: SPR, cytokine on chip.

In the next assay the target is T9, human IL-17B (human, UniProt Q9UHF5 21-180).
T9 construct: expressed in E. coli; also called hIL-17B
T9 sequence (looked up): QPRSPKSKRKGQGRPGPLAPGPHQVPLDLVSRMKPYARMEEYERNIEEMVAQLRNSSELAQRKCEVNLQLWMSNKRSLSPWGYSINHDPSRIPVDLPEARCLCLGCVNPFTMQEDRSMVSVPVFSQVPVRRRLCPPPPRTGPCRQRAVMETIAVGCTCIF
Description: SPR, cytokine on chip.

Substitutions are numbered along the chain they refer to.

As usually defined, the koff is the rate constant with which the complex falls apart. A word on the IC50: it is the concentration that gives 50% inhibition. Lower therefore signals greater potency.

T4 sequence (Q16552 24-155 limits assumed, chain 1 of 2, one chain of several): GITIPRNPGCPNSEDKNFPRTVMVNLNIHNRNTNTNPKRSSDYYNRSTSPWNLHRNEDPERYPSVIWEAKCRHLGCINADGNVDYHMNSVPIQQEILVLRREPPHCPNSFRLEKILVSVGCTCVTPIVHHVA
T3 sequence (Q16552 other isoform, or with tags, fused parts or gaps): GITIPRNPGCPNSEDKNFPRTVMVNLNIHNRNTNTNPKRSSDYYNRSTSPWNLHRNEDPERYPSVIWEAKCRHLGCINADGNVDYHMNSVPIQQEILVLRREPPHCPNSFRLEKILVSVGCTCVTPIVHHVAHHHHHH
Description for human IL-17B: (§2) Human IL-17B, IL-17C, IL-17D or IL-17E were all expressed in E. coli, and covalently bound to a CM sensor chip surface via amine coupling using EDC/NHS for activation and HCl for deactivation.
(§3) Next, binding buffer was sent over the chip at the same flow rate to allow spontaneous dissociation of bound Nanobody or antibody.
Description for human IL-17C: as §2, §3
Description for human IL-17D: as §2, §3
Description for human IL-17E: as §2, §3
Description for mouse IL-17F: (§4) Binding of a selected panel of anti-IL-17 Nanobodies to IL-17 of other species was assessed using a binding ELISA. […] HRP (horseradish peroxidase) conjugated anti-myc (Serotec, MCA 2200P) was used for detection using esTMB as substrate.
Description for rat IL-17F: as §4

B1: 24B08 (VHH)
VHH: EVQLVESGGGLVQAGGSLRLSCAVSGGTFSTYKMGWFRQAPGKEREIVARISTNGPTAYAEFVKGRFTVSRENTKNTVYLQMNSLNIEDTAVYYCAAGYDSLFAGYDYWGQGTQVTVSS
notes: Class 3
On to B1, for which the binding result with mouse IL-17F and in the assay with rat IL-17F was “no binding (tested: 250 nM)” each time.

B2: 02A10 (VHH)
VHH: EVQLVESGGGLVQPGGSLRLSCAASGFALGYYAIGWFRQAPGKEREGVSCDSSSDGRTYYGDSVKGRFTISTDSAKNTVYLQMNSLKPEDTAVYYCATCTDFEYDYWGQGTQVTVSS
notes: Class 2 Nanobody (anti-IL-17A and IL-17A/F); not shown: c-myc, His6 tag
Turning to B2, the koff was 0.00022 s⁻¹ in the assay with human IL-17A [1] and 0.00028 s⁻¹ in assay [3]. The half-inhibitory concentration (IC50) stood at 0.381 nM with human IL-17A [2], 0.115 nM with human IL-17A [5], 0.248 nM in assay [6] and 0.199 nM in [8]. Besides, the “IL-17A-induced IL-6 production in HT-1080 cells, Emax” value (“IL-17A-induced IL-6 production … Emax” below) with human IL-17A [4] is 104%. The “IL-17A-induced IL-6 production in HT-1080 cells, IC50” value (shortened to “IL-17A-induced IL-6 production … IC50”) with human IL-17A [4] was 4.3 nM. In assay [7], the “IL-17A/F-induced IL-6 production in HT-1080 cells, Emax” value worked out at 98.5%. For the same molecule, the “IL-17A/F-induced IL-6 production in HT-1080 cells, IC50” value in assay [7] amounted to 29.2 nM. Besides, in the assay with human IL-17F, the binding result is on record as “no binding”.

B3: 04F09 (VHH)
VHH: EVQLVESGGGLVQPGGSLRLSCAASGRTFSTHAMGWFRQAPGKERDFVAAIRWSDGSSFYADSVKGRFTISRDNAKNAVYLQSNSLKSEDTAVYVCYADVEGPTALHKYWGRGTQVTVSS
notes: as for B2
Consider B3, for which the koff with human IL-17A [1] was determined as 0.00063 s⁻¹; in assay [3] it was 0.0081 s⁻¹. Moreover, the IC50 was 0.468 nM in the assay with human IL-17A [2], 0.099 nM in the assay with human IL-17A [5], 3.15 nM in assay [6] and 3.98 nM in [8]. For the same molecule, the “IL-17A-induced IL-6 production … Emax” value with human IL-17A [4] was 111%. Besides, the “IL-17A-induced IL-6 production … IC50” value with human IL-17A [4] was determined as 9.7 nM. In addition, in assay [7], the “IL-17A/F-induced IL-6 production in HT-1080 cells, Emax” value came to 68.5%. Moreover, the “IL-17A/F-induced IL-6 production in HT-1080 cells, IC50” value in [7] amounted to 45.9 nM. For the same molecule, the binding result with human IL-17F is given as “no binding”.

B4: 07B11 (VHH)
VHH: EVQLVESGGGLVQAGGSLRLSCVASGRAFSSYVMGWFRQAPGMEREFVALIRWSDGITGYVDSVKGRFTISRDNAKNTVYLQMNSLKPEDTAVYYCAAAVRPGDYDYWGQGTQVTVSS
notes: Class 3
For B4, the binding result with human IL-17E was “no binding”; with human IL-17C, “no binding”; in the assay with human IL-17D, “no binding”; with human IL-17B, “no binding”; in the assay with mouse IL-17F, “no binding (tested: 250 nM)”; with rat IL-17F, “no binding (tested: 250 nM)”.

B5: 09G10 (VHH)
VHH: EVQLVESGGGLVQAGGSLRLSCAASDSVFTAKAVGWYRQPPGLQREWVAIITSGGKTNYADSSVKGRFTVSVDKVKNTVTLQMNSLKPEDTAVYYCYAQWMGRDYWGQGTQVTVSS
notes: as for B2
Regarding B5, the koff came to 0.00012 s⁻¹ in the assay with human IL-17A [1] and 0.00013 s⁻¹ in assay [3]. In addition, the IC50 in the assay with human IL-17A [2] was found to be 0.323 nM; with human IL-17A [5], 0.046 nM; in assay [6], 0.12 nM; in [8] it was 0.101 nM. The “IL-17A-induced IL-6 production … Emax” value in the assay with human IL-17A [4] stood at 99%. Also, the “IL-17A-induced IL-6 production … IC50” value with human IL-17A [4] turned out to be 4 nM. Further, the “IL-17A/F-induced IL-6 production in HT-1080 cells, Emax” value in assay [7] was 108%. For the same molecule, in [7], the “IL-17A/F-induced IL-6 production in HT-1080 cells, IC50” value is 22.2 nM. Further, the binding result with human IL-17F was “no binding”.

B6: 04B10 (VHH)
VHH: EVQLVESGGGLVQAGGSQSLSCVASGTIVNINVMGWYRQAPGKQRELVALITSGGGTTYGDSVKGRFTISIDNAKNTVILQMNSLEAEDTAVYYCAAEIGYYSGGTYFSSEAHWGQGTQVTVSS
notes: as for B2
B6: the koff was 0.0004 s⁻¹ in the assay with human IL-17A [1] and 0.0005 s⁻¹ in assay [3]. In addition, the IC50 was 0.366 nM with human IL-17A [2], 0.068 nM with human IL-17A [5], 0.052 nM in assay [6] and 0.095 nM in [8]. In the assay with human IL-17A [4], the “IL-17A-induced IL-6 production … Emax” value worked out at 99.7%. In addition, the “IL-17A-induced IL-6 production … IC50” value in the assay with human IL-17A [4] came out at 5.1 nM. Besides, the “IL-17A/F-induced IL-6 production in HT-1080 cells, Emax” value in [7] came out at 97%. In addition, in [7], the “IL-17A/F-induced IL-6 production in HT-1080 cells, IC50” value worked out at 59.2 nM. Further, the binding result in the assay with human IL-17F is listed as “no binding”.

B7: 04G01 (VHH)
VHH: EVQLVESGGGLVQAGGSQRLSCTASGTIVNIHVMGWYRQAPGKQRELVALIFSGGSADYADSVKGRFTISRDNAKNTVYLEMNSLKAEDTAVYYCAAEIGYYSGGTYYSSEAHWGQGTQVTVSS
notes: Class 2 Nanobody (anti-IL-17A and IL-17A/F); also called IL17MS04G01; not shown: c-myc, His6 tag
Regarding B7, the koff with human IL-17A [1] stood at 0.00018 s⁻¹; in assay [3], 0.00023 s⁻¹. The IC50 amounted to 0.217 nM with human IL-17A [2], 0.014 nM with human IL-17A [5], 0.039 nM in [6] and 0.067 nM in [8]. In addition, the “IL-17A-induced IL-6 production … Emax” value with human IL-17A [4] was determined as 113%. In addition, the “IL-17A-induced IL-6 production … IC50” value with human IL-17A [4] was 5.4 nM. Moreover, in [7], the “IL-17A/F-induced IL-6 production in HT-1080 cells, Emax” value worked out at 104%. Also, in assay [7], the “IL-17A/F-induced IL-6 production in HT-1080 cells, IC50” value came to 34.7 nM. In addition, the binding result in the assay with human IL-17F was “no binding”.

B8: 07B09 (VHH)
VHH: EVQLVESGGGLVQAGGSLRLSCGASGGTFSSYATGWFRQAPGKEREFVAVLRWSDGHTAYADSVKGRFTISRDGAKNTMYLQMSSLKPEDTAIYYCTTATRPGEWDYWGQGTQVTVSS
notes: Class 3
In the case of B8, the binding result is on record as “no binding” with human IL-17E; “no binding” in the assay with human IL-17C; “no binding” in the assay with human IL-17D; “no binding” with human IL-17B; “no binding (tested: 250 nM)” with mouse IL-17F; “no binding (tested: 250 nM)” in the assay with rat IL-17F.

B9: 24G10 (VHH)
VHH: B8 VHH with S25A, L51F, G56S, M79L
notes: Class 3
Turning to B9, the binding result with human IL-17E is listed as “no binding”; in the assay with human IL-17C, “no binding”; with human IL-17D it was “no binding”; in the assay with human IL-17B, “no binding”; with mouse IL-17F, “no binding (tested: 250 nM)”; with rat IL-17F it was “no binding (tested: 250 nM)”.

B10: 08H01 (VHH)
VHH: B8 VHH with G56S, K65E, M79V, A99G, D106H
notes: Class 3
Consider B10, for which the binding result was “no binding” in the assay with human IL-17E; “no binding” in the assay with human IL-17C; “no binding” in the assay with human IL-17D; “no binding” in the assay with human IL-17B; “no binding (tested: 250 nM)” in the assay with mouse IL-17F; “no binding (tested: 250 nM)” with rat IL-17F.
